Data from article PMC9482650, “Quantitative fragmentomics allow affinity mapping of interactomes” (Nature Communications, 2022).
Blank lines part the entries; values can stand above or below the binder they belong to.

How the values were obtained:
Test in all cases: holdup assay
Set-up in all cases: key: below the threshold = too weak to quantify, mostly under pKd 3.1 to 4
LIN7A, O14910 = target: T1, LIN7A, O14910
T1 sequence (O14910 103-200, limits assumed, looked up): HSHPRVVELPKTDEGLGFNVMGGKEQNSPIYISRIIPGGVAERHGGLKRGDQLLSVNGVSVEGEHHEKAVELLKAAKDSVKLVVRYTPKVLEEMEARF

NHERF3_1, Q5T2W1 = target: T2, NHERF3_1, Q5T2W1
T2 sequence (Q5T2W1 4-100, limits assumed, looked up): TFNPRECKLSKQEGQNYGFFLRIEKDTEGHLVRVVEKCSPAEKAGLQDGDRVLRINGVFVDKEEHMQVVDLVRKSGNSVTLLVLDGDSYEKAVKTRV

Inadl_2, Q8NI35 = target: Inadl_2, Q8NI35
Inadl_2, Q8NI35, sequence (Q8NI35 238-335): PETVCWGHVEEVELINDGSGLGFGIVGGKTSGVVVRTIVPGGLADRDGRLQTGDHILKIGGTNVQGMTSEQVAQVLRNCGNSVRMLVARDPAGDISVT

LRRC7, Q96NW7 = target: T3, LRRC7, Q96NW7
T3 sequence (Q96NW7 1440-1537, limits assumed, looked up): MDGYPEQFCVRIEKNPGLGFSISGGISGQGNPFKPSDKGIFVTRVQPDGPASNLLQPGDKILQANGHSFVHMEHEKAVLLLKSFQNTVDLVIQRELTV

ARHGEF12, Q9NZN5-2 = target: ARHGEF12, Q9NZN5-2
ARHGEF12, Q9NZN5-2, sequence (Q9NZN5 other isoform, or with tags, fused parts or gaps): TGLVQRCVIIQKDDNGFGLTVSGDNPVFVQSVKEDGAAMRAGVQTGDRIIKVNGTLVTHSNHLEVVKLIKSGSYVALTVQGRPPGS

RADIL, Q96JH8 = target: T4, RADIL, Q96JH8
T4 sequence (Q96JH8 971-1071, limits assumed, looked up): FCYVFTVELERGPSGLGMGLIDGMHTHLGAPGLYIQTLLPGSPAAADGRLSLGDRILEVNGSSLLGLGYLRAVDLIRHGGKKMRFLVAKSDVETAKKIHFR

Inadl_5, Q8NI35 = target: Inadl_5, Q8NI35
Inadl_5, Q8NI35, sequence (Q8NI35 673-780): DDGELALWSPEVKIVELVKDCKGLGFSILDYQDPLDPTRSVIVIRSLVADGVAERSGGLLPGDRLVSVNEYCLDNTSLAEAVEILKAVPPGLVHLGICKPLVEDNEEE

MAST2, Q6P0Q8 = target: MAST2, Q6P0Q8
MAST2, Q6P0Q8, sequence (Q6P0Q8 1099-1202): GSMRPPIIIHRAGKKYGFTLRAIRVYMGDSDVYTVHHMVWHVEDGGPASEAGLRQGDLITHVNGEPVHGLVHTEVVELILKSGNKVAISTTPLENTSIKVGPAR

MPP7, Q5T2T1 = target: T5, MPP7, Q5T2T1
T5 sequence (Q5T2T1 134-230, limits assumed, looked up): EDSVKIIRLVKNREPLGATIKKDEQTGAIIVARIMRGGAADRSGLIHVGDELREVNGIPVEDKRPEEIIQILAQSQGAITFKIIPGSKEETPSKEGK

RHPN1, Q8TCX5 = target: T6, RHPN1, Q8TCX5
T6 sequence (Q8TCX5 508-602, limits assumed, looked up): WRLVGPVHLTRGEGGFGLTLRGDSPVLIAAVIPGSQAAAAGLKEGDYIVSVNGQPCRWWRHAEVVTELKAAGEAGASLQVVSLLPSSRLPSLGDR

NHERF3_4, Q5T2W1 = target: T7, NHERF3_4, Q5T2W1
T7 sequence (Q5T2W1 373-468, limits assumed, looked up): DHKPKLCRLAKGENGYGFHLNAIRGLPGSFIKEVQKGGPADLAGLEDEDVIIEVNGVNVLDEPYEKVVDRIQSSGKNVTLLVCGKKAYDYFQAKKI

PDZRN3_1, Q9UPQ7 = target: T8, PDZRN3_1, Q9UPQ7
T8 sequence (Q9UPQ7 244-349, limits assumed, looked up): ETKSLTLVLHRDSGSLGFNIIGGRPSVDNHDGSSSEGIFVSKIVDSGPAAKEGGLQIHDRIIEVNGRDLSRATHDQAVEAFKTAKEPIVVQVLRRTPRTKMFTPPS

PICK1, Q9NRD5 = target: PICK1, Q9NRD5
PICK1, Q9NRD5, sequence (Q9NRD5 17-115): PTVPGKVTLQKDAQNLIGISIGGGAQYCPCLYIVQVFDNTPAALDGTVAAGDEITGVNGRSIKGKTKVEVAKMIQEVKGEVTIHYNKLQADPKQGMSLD

PCLO, Q9Y6V0 = target: T9, PCLO, Q9Y6V0
T9 sequence (Q9Y6V0 4491-4600, limits assumed, looked up): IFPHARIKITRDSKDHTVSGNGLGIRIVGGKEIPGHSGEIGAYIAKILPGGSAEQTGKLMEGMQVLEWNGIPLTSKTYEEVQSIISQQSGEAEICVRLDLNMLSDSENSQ

MAGI1_2, Q96QZ7 = target: MAGI1_2, Q96QZ7
MAGI1_2, Q96QZ7, sequence (Q96QZ7 456-580): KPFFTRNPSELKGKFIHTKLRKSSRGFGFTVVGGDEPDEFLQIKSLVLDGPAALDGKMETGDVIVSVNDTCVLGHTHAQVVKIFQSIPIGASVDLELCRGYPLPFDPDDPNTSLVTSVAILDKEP

GRIP1_3, Q9Y3R0 = target: T10, GRIP1_3, Q9Y3R0
T10 sequence (Q9Y3R0 247-346, limits assumed, looked up): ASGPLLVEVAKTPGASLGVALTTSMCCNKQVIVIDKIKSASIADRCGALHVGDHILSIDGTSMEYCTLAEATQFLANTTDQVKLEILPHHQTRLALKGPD

DLG4_1, P78352 = target: DLG4_1, P78352
DLG4_1, P78352, sequence (P78352 62-152): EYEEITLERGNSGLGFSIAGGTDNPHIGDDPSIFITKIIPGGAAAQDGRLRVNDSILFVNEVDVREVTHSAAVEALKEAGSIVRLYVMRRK

PARD3_3, Q8TEW0 = target: PARD3_3, Q8TEW0
PARD3_3, Q8TEW0, sequence (Q8TEW0 582-685): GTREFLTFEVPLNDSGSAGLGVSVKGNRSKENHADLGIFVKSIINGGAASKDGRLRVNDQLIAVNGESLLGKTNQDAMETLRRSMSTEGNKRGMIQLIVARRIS

DFNB31_1, Q9P202 = target: T11, DFNB31_1, Q9P202
T11 sequence (Q9P202 135-233, limits assumed, looked up): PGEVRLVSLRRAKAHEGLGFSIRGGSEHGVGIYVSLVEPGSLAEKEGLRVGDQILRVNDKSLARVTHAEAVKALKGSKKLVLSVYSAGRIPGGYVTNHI

HTRA4, P83105 = target: T12, HTRA4, P83105
T12 sequence (P83105 378-476, limits assumed, looked up): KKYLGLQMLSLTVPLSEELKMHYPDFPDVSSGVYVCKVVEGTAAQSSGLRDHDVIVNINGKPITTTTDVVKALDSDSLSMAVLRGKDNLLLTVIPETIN

DLG1_2, Q12959 = target: DLG1_2, Q12959
DLG1_2, Q12959, sequence (Q12959 314-412): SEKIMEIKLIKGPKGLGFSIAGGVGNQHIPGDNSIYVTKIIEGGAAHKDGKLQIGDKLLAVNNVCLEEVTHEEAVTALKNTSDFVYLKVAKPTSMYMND

IL16_1, Q14005 = target: IL16_1, Q14005
IL16_1, Q14005, sequence (Q14005 210-306): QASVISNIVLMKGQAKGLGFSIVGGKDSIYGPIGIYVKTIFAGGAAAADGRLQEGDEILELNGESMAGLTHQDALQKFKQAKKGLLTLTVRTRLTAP

LAP2, Q96RT1 = target: LAP2, Q96RT1
LAP2, Q96RT1, sequence (Q96RT1 other isoform, or with tags, fused parts or gaps): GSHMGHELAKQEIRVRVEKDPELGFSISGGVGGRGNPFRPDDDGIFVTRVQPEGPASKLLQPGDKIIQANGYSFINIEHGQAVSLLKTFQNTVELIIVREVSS

GRIP2_4, Q9C0E4 = target: GRIP2_4, Q9C0E4
GRIP2_4, Q9C0E4, sequence (Q9C0E4 446-548): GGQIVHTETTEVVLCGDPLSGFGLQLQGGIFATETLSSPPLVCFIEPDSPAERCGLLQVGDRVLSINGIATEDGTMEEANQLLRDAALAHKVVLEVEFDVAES

[1] = plain residues with an end cap or a label only (N-terminal biotin on a linker: ttds)
[2] = plain residues with an end cap or a label only (N-terminal biotin on a linker: ahx)

pKd (LIN7A, O14910; [1]): 4.04
pKd (NHERF3_1, Q5T2W1; [1]): 4.41
pKd (Inadl_2, Q8NI35; [1]): below the threshold
pKd (LRRC7, Q96NW7; [1]): below the threshold
pKd (ARHGEF12, Q9NZN5-2; [1]): 4.4
pKd (RADIL, Q96JH8; [1]): 3.69
pKd (Inadl_5, Q8NI35; [1]): below the threshold
pKd (MAST2, Q6P0Q8; [1]): 5.53
pKd (MPP7, Q5T2T1; [1]): below the threshold
pKd (RHPN1, Q8TCX5; [1]): 4.58
pKd (NHERF3_4, Q5T2W1; [1]): 3.63
pKd (PDZRN3_1, Q9UPQ7; [1]): 5.15
pKd (PICK1, Q9NRD5; [1]): 3.76
pKd (PCLO, Q9Y6V0; [1]): below the threshold
pKd (MAGI1_2, Q96QZ7; [1]): 3.68
pKd (GRIP1_3, Q9Y3R0; [1]): below the threshold
pKd (DLG4_1, P78352; [1]): 4.78
pKd (PARD3_3, Q8TEW0; [1]): 3.87
pKd (DFNB31_1, Q9P202; [1]): 4.17
pKd (HTRA4, P83105; [1]): 3.6
pKd (DLG1_2, Q12959; [1]): 5.43
pKd (IL16_1, Q14005; [1]): 4.7
pKd (LAP2, Q96RT1; [1]): 4.66
pKd (GRIP2_4, Q9C0E4; [1]): below the threshold
Binder: SSLQSLETSV [ATP2B4, P23634]

pKd (LIN7A, O14910; [1]): below the threshold
pKd (NHERF3_1, Q5T2W1; [1]): 5.38
pKd (Inadl_2, Q8NI35; [1]): below the threshold
pKd (LRRC7, Q96NW7; [1]): below the threshold
pKd (ARHGEF12, Q9NZN5-2; [1]): 4.29
pKd (RADIL, Q96JH8; [1]): below the threshold
pKd (Inadl_5, Q8NI35; [1]): below the threshold
pKd (MAST2, Q6P0Q8; [1]): 6.38
pKd (MPP7, Q5T2T1; [1]): below the threshold
pKd (RHPN1, Q8TCX5; [1]): 4.28
pKd (NHERF3_4, Q5T2W1; [1]): below the threshold
pKd (PDZRN3_1, Q9UPQ7; [1]): 4.57
pKd (PICK1, Q9NRD5; [1]): below the threshold
pKd (PCLO, Q9Y6V0; [1]): below the threshold
pKd (MAGI1_2, Q96QZ7; [1]): 3.69
pKd (GRIP1_3, Q9Y3R0; [1]): below the threshold
pKd (DLG4_1, P78352; [1]): 3.73
pKd (PARD3_3, Q8TEW0; [1]): 3.62
pKd (DFNB31_1, Q9P202; [1]): 3.98
pKd (HTRA4, P83105; [1]): below the threshold
pKd (DLG1_2, Q12959; [1]): 3.56
pKd (IL16_1, Q14005; [1]): below the threshold
pKd (LAP2, Q96RT1; [1]): below the threshold
pKd (GRIP2_4, Q9C0E4; [1]): below the threshold
Binder: KKYVDAETSL [SLC4A7, Q9Y6M7]

pKd (LIN7A, O14910; [2]): below the threshold
pKd (NHERF3_1, Q5T2W1; [2]): below the threshold
pKd (Inadl_2, Q8NI35; [2]): below the threshold
pKd (LRRC7, Q96NW7; [2]): below the threshold
pKd (ARHGEF12, Q9NZN5-2; [2]): below the threshold
pKd (RADIL, Q96JH8; [2]): below the threshold
pKd (Inadl_5, Q8NI35; [2]): below the threshold
pKd (MAST2, Q6P0Q8; [2]): below the threshold
pKd (MPP7, Q5T2T1; [2]): below the threshold
pKd (RHPN1, Q8TCX5; [2]): below the threshold
pKd (NHERF3_4, Q5T2W1; [2]): below the threshold
pKd (PDZRN3_1, Q9UPQ7; [2]): below the threshold
pKd (PICK1, Q9NRD5; [2]): below the threshold
pKd (PCLO, Q9Y6V0; [2]): below the threshold
pKd (MAGI1_2, Q96QZ7; [2]): below the threshold
pKd (GRIP1_3, Q9Y3R0; [2]): below the threshold
pKd (DLG4_1, P78352; [2]): below the threshold
pKd (PARD3_3, Q8TEW0; [2]): below the threshold
pKd (DFNB31_1, Q9P202; [2]): below the threshold
pKd (HTRA4, P83105; [2]): below the threshold
pKd (DLG1_2, Q12959; [2]): below the threshold
pKd (IL16_1, Q14005; [2]): below the threshold
pKd (LAP2, Q96RT1; [2]): below the threshold
pKd (GRIP2_4, Q9C0E4; [2]): below the threshold
Binder: ESLLLGPSNF [SHROOM4, Q9ULL8]
